Results reported in patent US20260201020A1, “METHODS FOR EXPRESSION OF FUSION-FREE BOVINE ULTRALONG CDR3 SCAFFOLD” (priority 2022, published 2026).
Where two headings read alike, the source gives them in different places.

Experiments:
[1] = biological target: SARS-CoV-2 Spike RBD (SARS-CoV-2), P0DTC2
[2] = biological target: SARS-CoV-2 Spike RBD (SARS-CoV-2), P0DTC2; remark: listed apart in the source
[3] = biological target: SARS-CoV-2 Spike RBD (SARS-CoV-2), P0DTC2; remark: listed apart in the source
[4] = biological target: SARS-CoV-2 Spike RBD (SARS-CoV-2), P0DTC2; remark: listed apart in the source
[5] = biological target: SARS-CoV-2 Spike RBD (SARS-CoV-2), P0DTC2; remark: listed apart in the source
[6] = biological target: SARS-CoV-2 Spike RBD (SARS-CoV-2), P0DTC2; remark: listed apart in the source
[7] = biological target: SARS-CoV-2 Spike RBD (SARS-CoV-2), P0DTC2; remark: listed apart in the source
[8] = biological target: SARS-CoV-2 Spike RBD (SARS-CoV-2), P0DTC2; remark: listed apart in the source
[9] = biological target: SARS-CoV-2 Spike RBD (SARS-CoV-2), P0DTC2; remark: listed apart in the source
[10] = biological target: SARS-CoV-2 Spike RBD (SARS-CoV-2), P0DTC2; remark: listed apart in the source
[11] = biological target: SARS-CoV-2 Spike RBD (SARS-CoV-2), P0DTC2; remark: listed apart in the source
[12] = biological target: SARS-CoV-2 Spike RBD (SARS-CoV-2), P0DTC2; remark: listed apart in the source
[13] = biological target: SARS-CoV-2 Spike RBD (SARS-CoV-2), P0DTC2; remark: listed apart in the source
[14] = biological target: SARS-CoV-2 Spike RBD (SARS-CoV-2), P0DTC2; remark: listed apart in the source
[15] = biological target: SARS-CoV-2 Spike RBD (SARS-CoV-2), P0DTC2; remark: listed apart in the source
[16] = biological target: SARS-CoV-2 Spike RBD (SARS-CoV-2), P0DTC2; remark: listed apart in the source
[17] = biological target: SARS-CoV-2 Spike RBD (SARS-CoV-2), P0DTC2; remark: listed apart in the source
[18] = biological target: SARS-CoV-2 Spike RBD (SARS-CoV-2), P0DTC2; remark: listed apart in the source
[19] = biological target: SARS-CoV-2 Spike RBD (SARS-CoV-2), P0DTC2; remark: listed apart in the source
[20] = biological target: SARS-CoV-2 Spike RBD (SARS-CoV-2), P0DTC2; remark: listed apart in the source
[21] = biological target: SARS-CoV-2 Spike RBD (SARS-CoV-2), P0DTC2; remark: listed apart in the source
[22] = biological target: SARS-CoV-2 Spike RBD (SARS-CoV-2), P0DTC2; remark: listed apart in the source
[23] = biological target: SARS-CoV-2 Spike RBD (SARS-CoV-2), P0DTC2; remark: listed apart in the source
[24] = biological target: SARS-CoV-2 Spike RBD (SARS-CoV-2), P0DTC2; remark: listed apart in the source
[25] = biological target: SARS-CoV-2 Spike RBD (SARS-CoV-2), P0DTC2; remark: listed apart in the source
[26] = biological target: SARS-CoV-2 Spike RBD (SARS-CoV-2), P0DTC2; remark: listed apart in the source
[27] = biological target: SARS-CoV-2 Spike RBD (SARS-CoV-2), P0DTC2; remark: listed apart in the source

B1: R2G3-His (peptide)
chain: GGGGAMGSEGDKTCPDGYEHTCGCIGGCGCKRSACIGALCCQASLGGWLSDGETYTGGGGSGGGGSHHHHHH
modifications: not checked
[1]
  Adjusted Binding Rate: 7.1 nm/s
[2]
  Adjusted Binding Rate: 5.5 nm/s
[3]
  Adjusted Binding Rate: 31.9 nm/s
[4]
  Adjusted Binding Rate: 3.79 nm/s
[5]
  Adjusted Binding Rate: 5.39 nm/s
[6]
  Adjusted Binding Rate: 3.73 nm/s
[7]
  Adjusted Binding Rate: 7.41 nm/s
[8]
  Adjusted Binding Rate: 32.8 nm/s
[9]
  Adjusted Binding Rate: 1.5 nm/s
[10]
  Adjusted Binding Rate: 4.3 nm/s
[11]
  Adjusted Binding Rate: 3.35 nm/s
[12]
  Adjusted Binding Rate: 4.91 nm/s
[13]
  Adjusted Binding Rate: 7.34 nm/s
[14]
  Adjusted Binding Rate: 3.39 nm/s
[15]
  Adjusted Binding Rate: 9.51 nm/s
[16]
  Adjusted Binding Rate: 8.31 nm/s
[17]
  Adjusted Binding Rate: 12.5 nm/s
[18]
  Adjusted Binding Rate: 4.4 nm/s
[19]
  Adjusted Binding Rate: 6.47 nm/s
[20]
  Adjusted Binding Rate: 2.44 nm/s
[21]
  Adjusted Binding Rate: 2.88 nm/s
[22]
  Adjusted Binding Rate: 19.4 nm/s
[23]
  Adjusted Binding Rate: 5.39 nm/s
[24]
  Adjusted Binding Rate: 14.3 nm/s
[25]
  Adjusted Binding Rate: 34.6 nm/s
[26]
  Adjusted Binding Rate: 6.36 nm/s
[27]
  Adjusted Binding Rate: 2.1 nm/s
